# Results: IntAct's records for PubMed 24528925
# B1: Ubiquitin-conjugating enzyme E2 Z (Homo sapiens), Q9H832 (parent)
# chain: MAESPTEEAATAGAGAAGPGASSVAGVVGVSGSGGGFGPPFLPDVWAAAAAAGGAGGPGSGLAPLPGLPPSAAAHGAALLSHWDPTLSSDWDGERTAPQCLLRIKRDIMSIYKEPPPGMFVVPDTVDMTKIHALITGPFDTPYEGGFFLFVFRCPPDYPIHPPRVKLMTTGNNTVRFNPNFYRNGKVCLSILGTWTGPAWSPAQSISSVLISIQSLMTENPYHNEPGFEQERHPGDSKNYNECIRHETIRVAVCDMMEGKCPCPEPLRGVMEKSFLEYYDFYEVACKDRLHLQGQTMQDPFGEKRGHFDYQSLLMRLGLIRQKVLERLHNENAEMDSDSSSSGTETDLHGSLRV
# Variants of: B1
# Settings: with ubd_human UBD
row,Variant,effect of a mutation on the interaction
1,MAESPTEEAATAGAGAAGPGASSVAGVVGVSGSGGGFGPPFLPDVWAAAAAAGGAGGPGSGLAPLPGLPPSAAAHGAALLSHWDPTLSSDWDGERTAPQCLLRIKRDIMSIYKEPPPGMFVVPDTVDMTKIHALITGPFDTPYEGGFFLFVFRCPPDYPIHPPRVKLMTTGNNTVRFNPNFYRNGKVCLSILGTWTGPAWSPAQSISSVLISIQSLMTENPYHNEPGFEQERHPGDSKNYNECIRHETIRVAVCDMMEGKCPCPEPLRGVMEKSFLEYYDFYEVACKDRLHLQGQTMQDPFGEKRGHFDYQSLLMRLGLIRQRVLERLHNENAEMDSDSSSSGTETDLHGSLRV [K323R],decreasing interaction
